In patent publication US12139520B2 (priority 2020, dated 2024):
Bridge positions count the residues as written; N and C are the ends. Square brackets hold non-standard residues; d marks the D form. Ends that are not written are not given here. Hyp = O=C(O)[C@@H]1C[C@@H](O)CN1; Cit = NC(=O)NCCC[C@H](N)C(=O)O

T1: hAMY3R (human, UniProt P30988)
T1 sequence 1: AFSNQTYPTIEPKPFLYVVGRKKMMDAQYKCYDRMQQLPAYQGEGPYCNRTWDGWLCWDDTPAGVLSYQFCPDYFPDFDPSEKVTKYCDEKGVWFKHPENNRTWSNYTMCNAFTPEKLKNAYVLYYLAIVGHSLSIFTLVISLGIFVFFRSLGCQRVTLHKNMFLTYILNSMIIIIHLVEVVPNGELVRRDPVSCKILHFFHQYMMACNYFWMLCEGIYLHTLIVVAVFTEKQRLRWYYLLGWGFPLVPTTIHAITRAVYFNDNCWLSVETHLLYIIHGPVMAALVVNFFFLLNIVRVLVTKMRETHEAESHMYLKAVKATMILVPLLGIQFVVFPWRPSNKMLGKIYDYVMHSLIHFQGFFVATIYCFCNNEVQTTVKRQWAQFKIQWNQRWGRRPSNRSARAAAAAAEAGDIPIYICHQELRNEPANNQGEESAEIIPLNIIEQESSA
T1 sequence 2: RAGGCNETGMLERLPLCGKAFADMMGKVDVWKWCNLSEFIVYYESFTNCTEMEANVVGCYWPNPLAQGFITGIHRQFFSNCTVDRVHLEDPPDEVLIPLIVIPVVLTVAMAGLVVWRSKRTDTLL


The binders below were run against hAM1R (human, UniProt Q16602) (assay: cell-based or functional assay).

Compared with KCNFATCTVQRLAHQIYQFTDKDKDNVAPRTKVGSNG[Hyp]-NH2 (disulfide 2-7 (inferred); ends not checked) [SEQ ID NO: 3], KCNTATCTVQ[Cit]LAHQIYQFTDKDADNVAPPTNVGSNG[Hyp]-NH2 (disulfide 2-7 (inferred); ends not checked) [SEQ ID NO: 250] is higher in “hAM1R EC50 (cAMP)” value: 124 nM for the first, over 5000 nM for the second.

RCQTSTCTVA[Cit]LAEQIAQYTDKDKDQVAPPTNVGSNS[Hyp]-NH2 (disulfide 2-7 (inferred); ends not checked) [SEQ ID NO: 256] and KCNTATCTVQRLAHQIYQFTDKDKANVAPPTNVGSNG[Hyp]-NH2 (disulfide 2-7 (inferred); ends not checked) [SEQ ID NO: 26] cannot be ordered by “hAM1R EC50 (cAMP)” value: over 5000 nM for the first, over 5000 nM for the second.

GCRFGTCTVQ[Cit]LAHFLYQFTDKDKDNVAPRTNVGSNTY-NH2 (disulfide 2-7 (inferred); ends not checked) [SEQ ID NO: 264] and KCNTATCTVQ[Cit]LAAQIYQFTDKDKDNVAPPTNVGSNG[Hyp]-NH2 (disulfide 2-7 (inferred); ends not checked) [SEQ ID NO: 243] are within 1.5-fold of each other in “hAM1R EC50 (cAMP)” value: 3470 nM for the first, 3340 nM for the second.

KCNTATCTVQ[Cit]LAHQIYQFTKDKDNVAPPTNVGSNG[Hyp]-NH2 (disulfide 2-7 (inferred); ends not checked) [SEQ ID NO: 253] and KCNTSTCTVA[Cit]LADQITQFSDKDKANVSPPTEVGPNS[Hyp]-NH2 (disulfide 2-7 (inferred); ends not checked) [SEQ ID NO: 247] cannot be ordered by “hAM1R EC50 (cAMP)” value: over 5000 nM for the first, over 5000 nM for the second.

Compared with KCNTATCTVQ[Cit]LAHQIYQFTDKDKDNAAPPTNVGSNG[Hyp]-NH2 (disulfide 2-7 (inferred); ends not checked) [SEQ ID NO: 251], GCRFGTCTVQ[Cit]LAHQIYQFTDKDKDNVAPRTNVGPQG[Hyp]-NH2 (disulfide 2-7 (inferred); ends not checked) [SEQ ID NO: 267] is lower in “hAM1R EC50 (cAMP)” value: over 5000 nM for the first, 2490 nM for the second.

RCNASTCTVN[Cit]LADQITQFSNKDKAQVSPPTEVGPNS[Hyp]-NH2 (disulfide 2-7 (inferred); ends not checked) [SEQ ID NO: 245] and KCNTATCTVQRLAHQIYQFTDKDKDNAAPPTNVGSNG[Hyp]-NH2 (disulfide 2-7 (inferred); ends not checked) [SEQ ID NO: 27] cannot be ordered by “hAM1R EC50 (cAMP)” value: over 5000 nM for the first, over 5000 nM for the second.

GCRFGTCTVQ[Cit]LAHQIYQFTDKDKDNVAPRTNIGPQG[Hyp]-NH2 (disulfide 2-7 (inferred); ends not checked) [SEQ ID NO: 260] and KCNTATCTVQ[Cit]LAHQIYQFTDKDKDNVAPRTKVGSNG[Hyp]-NH2 (disulfide 2-7 (inferred); ends not checked) [SEQ ID NO: 248] are within 1.5-fold of each other in “hAM1R EC50 (cAMP)” value: 4160 nM for the first, 3590 nM for the second.

KCNTATCTVQRLAHQIYQFTDKDADNVAPPTNVGSNG[Hyp]-NH2 (disulfide 2-7 (inferred); ends not checked) [SEQ ID NO: 25] and KCNTATCTVQ[Cit]LAHQIYQFTDKAKDNVAPPTNVGSNG[Hyp]-NH2 (disulfide 2-7 (inferred); ends not checked) [SEQ ID NO: 258] cannot be ordered by “hAM1R EC50 (cAMP)” value: over 5000 nM for the first, over 5000 nM for the second.

KCNTSTCTVA[Cit]LADQITQFSNKDKAQVSPPTEVGPNS[Hyp]-NH2 (disulfide 2-7 (inferred); ends not checked) [SEQ ID NO: 244] and KCNTATCTVQ[Cit]LAHQIYQFTDKDKDNVAAPTNVGSNG[Hyp]-NH2 (disulfide 2-7 (inferred); ends not checked) [SEQ ID NO: 262] cannot be ordered by “hAM1R EC50 (cAMP)” value: over 5000 nM for the first, over 5000 nM for the second.

GCRTGTCTVQ[Cit]LAHQIYQFTDKDKDNVAPRTNVGPQG[Hyp]-NH2 (disulfide 2-7 (inferred); ends not checked) [SEQ ID NO: 261] and KCNTATCTVQ[Cit]LAEQIYQFTDKDKDNVSPPTNVGSNG[Hyp]-NH2 (disulfide 2-7 (inferred); ends not checked) [SEQ ID NO: 266] cannot be ordered by “hAM1R EC50 (cAMP)” value: over 5000 nM for the first, over 5000 nM for the second.

First: KCNTATCTVQ[Cit]LAHQIYQFADKDKDNVAPPTNVGSNG[Hyp]-NH2 (disulfide 2-7 (inferred); ends not checked) [SEQ ID NO: 249]
Second: GCRFGTCTVQ[Cit]LAHFLYQFTDKDKDNVAPRTNVGPQGY-NH2 (disulfide 2-7 (inferred); ends not checked) [SEQ ID NO: 263]
The “hAM1R EC50 (cAMP)” value of the first is higher: over 5000 nM for the first, 1280 nM for the second.

Compared with GCRFGTCTVQ[Cit]LAHQIYQFTDKDKDNVAPRTKVGPQG[Hyp]-NH2 (disulfide 2-7 (inferred); ends not checked) [SEQ ID NO: 259], KCNTATCTVQ[Cit]LAHQIYQFTDKDKDNVAPTNVGSNG[Hyp]-NH2 (disulfide 2-7 (inferred); ends not checked) [SEQ ID NO: 255] is higher in “hAM1R EC50 (cAMP)” value: 4320 nM for the first, over 5000 nM for the second.

Going from KCNTATCTVQ[Cit]LAHQIYQFTDKDKDNVPPTNVGSNG[Hyp]-NH2 (disulfide 2-7 (inferred); ends not checked) [SEQ ID NO: 254] to KCNTATCTVQ[Cit]LAHQIYQFTDKDKDNVAPRTKVGSNGY-NH2 (disulfide 2-7 (inferred); ends not checked) [SEQ ID NO: 257], the “hAM1R EC50 (cAMP)” value falls from over 5000 nM to 2040 nM.

KCNTATCTVQ[Cit]LAHQIYQFTDKDKDNVAPATNVGSNG[Hyp]-NH2 (disulfide 2-7 (inferred); ends not checked) [SEQ ID NO: 252] and KCNTATCTVQ[Cit]LAHQIAQFTDKDKDNVAPPTNVGSNG[Hyp]-NH2 (disulfide 2-7 (inferred); ends not checked) [SEQ ID NO: 246] cannot be ordered by “hAM1R EC50 (cAMP)” value: over 5000 nM for the first, over 5000 nM for the second.

In the case of KCNTATCTVQ[Cit]LAHQIYQFDKDKDNVAPPTNVGSNG[Hyp]-NH2 (disulfide 2-7 (inferred); ends not checked) [SEQ ID NO: 265], the “hAM1R EC50 (cAMP)” value is reported as over 5000 nM.

These binders were tested against T1, hAMY3R (assay: cell-based or functional assay).

In order of rising “hAMY3R EC50 (cAMP)” value:
1. KCNTATCTVQ[Cit]LAHQIYQFTKDKDNVAPPTNVGSNG[Hyp]-NH2 (disulfide 2-7 (inferred); ends not checked) [SEQ ID NO: 253]  0.004 nM
2. KCNTSTCTVA[Cit]LADQITQFSDKDKANVSPPTEVGPNS[Hyp]-NH2 (disulfide 2-7 (inferred); ends not checked) [SEQ ID NO: 247]  0.004 nM
3. GCRFGTCTVQ[Cit]LAHFLYQFTDKDKDNVAPRTNVGPQGY-NH2 (disulfide 2-7 (inferred); ends not checked) [SEQ ID NO: 263]  0.005 nM
4. KCNFATCTVQRLAHQIYQFTDKDKDNVAPRTKVGSNG[Hyp]-NH2 (disulfide 2-7 (inferred); ends not checked) [SEQ ID NO: 3]  0.006 nM
5. GCRFGTCTVQ[Cit]LAHFLYQFTDKDKDNVAPRTNVGSNTY-NH2 (disulfide 2-7 (inferred); ends not checked) [SEQ ID NO: 264]  0.006 nM
6. KCNTATCTVQ[Cit]LAHQIYQFTDKDKDNAAPPTNVGSNG[Hyp]-NH2 (disulfide 2-7 (inferred); ends not checked) [SEQ ID NO: 251]  0.006 nM
7. KCNTSTCTVA[Cit]LADQITQFSNKDKAQVSPPTEVGPNS[Hyp]-NH2 (disulfide 2-7 (inferred); ends not checked) [SEQ ID NO: 244]  0.006 nM
8. KCNTATCTVQ[Cit]LAHQIYQFADKDKDNVAPPTNVGSNG[Hyp]-NH2 (disulfide 2-7 (inferred); ends not checked) [SEQ ID NO: 249]  0.006 nM
9. KCNTATCTVQ[Cit]LAHQIYQFTDKDKDNVPPTNVGSNG[Hyp]-NH2 (disulfide 2-7 (inferred); ends not checked) [SEQ ID NO: 254]  0.006 nM
10. KCNTATCTVQ[Cit]LAHQIYQFTDKDKDNVAPATNVGSNG[Hyp]-NH2 (disulfide 2-7 (inferred); ends not checked) [SEQ ID NO: 252]  0.006 nM
11. RCQTSTCTVA[Cit]LAEQIAQYTDKDKDQVAPPTNVGSNS[Hyp]-NH2 (disulfide 2-7 (inferred); ends not checked) [SEQ ID NO: 256]  0.007 nM
12. GCRFGTCTVQ[Cit]LAHQIYQFTDKDKDNVAPRTNVGPQG[Hyp]-NH2 (disulfide 2-7 (inferred); ends not checked) [SEQ ID NO: 267]  0.007 nM
13. KCNTATCTVQ[Cit]LAHQIYQFTDKDKDNVAPTNVGSNG[Hyp]-NH2 (disulfide 2-7 (inferred); ends not checked) [SEQ ID NO: 255]  0.007 nM
14. KCNTATCTVQRLAHQIYQFTDKDKANVAPPTNVGSNG[Hyp]-NH2 (disulfide 2-7 (inferred); ends not checked) [SEQ ID NO: 26]  0.008 nM
15. KCNTATCTVQRLAHQIYQFTDKDKDNAAPPTNVGSNG[Hyp]-NH2 (disulfide 2-7 (inferred); ends not checked) [SEQ ID NO: 27]  0.008 nM
16. KCNTATCTVQRLAHQIYQFTDKDADNVAPPTNVGSNG[Hyp]-NH2 (disulfide 2-7 (inferred); ends not checked) [SEQ ID NO: 25]  0.008 nM
17. KCNTATCTVQ[Cit]LAHQIYQFTDKAKDNVAPPTNVGSNG[Hyp]-NH2 (disulfide 2-7 (inferred); ends not checked) [SEQ ID NO: 258]  0.01 nM
18. KCNTATCTVQ[Cit]LAHQIAQFTDKDKDNVAPPTNVGSNG[Hyp]-NH2 (disulfide 2-7 (inferred); ends not checked) [SEQ ID NO: 246]  0.01 nM
19. KCNTATCTVQ[Cit]LAHQIYQFTDKDADNVAPPTNVGSNG[Hyp]-NH2 (disulfide 2-7 (inferred); ends not checked) [SEQ ID NO: 250]  0.011 nM
20. GCRFGTCTVQ[Cit]LAHQIYQFTDKDKDNVAPRTNIGPQG[Hyp]-NH2 (disulfide 2-7 (inferred); ends not checked) [SEQ ID NO: 260]  0.011 nM
21. GCRFGTCTVQ[Cit]LAHQIYQFTDKDKDNVAPRTKVGPQG[Hyp]-NH2 (disulfide 2-7 (inferred); ends not checked) [SEQ ID NO: 259]  0.013 nM
22. KCNTATCTVQ[Cit]LAHQIYQFTDKDKDNVAAPTNVGSNG[Hyp]-NH2 (disulfide 2-7 (inferred); ends not checked) [SEQ ID NO: 262]  0.014 nM
23. KCNTATCTVQ[Cit]LAHQIYQFTDKDKDNVAPRTKVGSNGY-NH2 (disulfide 2-7 (inferred); ends not checked) [SEQ ID NO: 257]  0.016 nM
24. RCNASTCTVN[Cit]LADQITQFSNKDKAQVSPPTEVGPNS[Hyp]-NH2 (disulfide 2-7 (inferred); ends not checked) [SEQ ID NO: 245]  0.017 nM
25. KCNTATCTVQ[Cit]LAAQIYQFTDKDKDNVAPPTNVGSNG[Hyp]-NH2 (disulfide 2-7 (inferred); ends not checked) [SEQ ID NO: 243]  0.018 nM
26. GCRTGTCTVQ[Cit]LAHQIYQFTDKDKDNVAPRTNVGPQG[Hyp]-NH2 (disulfide 2-7 (inferred); ends not checked) [SEQ ID NO: 261]  0.018 nM
27. KCNTATCTVQ[Cit]LAHQIYQFTDKDKDNVAPRTKVGSNG[Hyp]-NH2 (disulfide 2-7 (inferred); ends not checked) [SEQ ID NO: 248]  0.027 nM
28. KCNTATCTVQ[Cit]LAHQIYQFDKDKDNVAPPTNVGSNG[Hyp]-NH2 (disulfide 2-7 (inferred); ends not checked) [SEQ ID NO: 265]  0.03 nM
29. KCNTATCTVQ[Cit]LAEQIYQFTDKDKDNVSPPTNVGSNG[Hyp]-NH2 (disulfide 2-7 (inferred); ends not checked) [SEQ ID NO: 266]  0.053 nM
